The results in this text go back to the DeepSol protein solubility set.

The data set in a line: soluble on expression in E. coli; label from the status in PepcDB or PDB records.
For the sequence “MGSDKIHHHHHHMAQSDKDLTLTPLKGKSGQAYIGTYPNGDKIFVKINTTPILAALAKEQIAPQLLWAKRLGNGDMMSAQEWLDGRLLTRADMNSKQIIQVLLQMHKSKPLVNQLLQLNYKVETPLDLLLSWERSAPYQISENAYLQSVVAEMKRNLPDFKKDYATIVHGDVRHSNWVITTSGLVYLVDWDSVRVTDRMYDVAHILSHYIPHTRWVEWLSYYGYKQNTKVFQKIKWYGQLSYLSQILKYYENRDMENVNQEIYELRKFRESF”, the “soluble on expression in E. coli” value is given as “not soluble”.
Next, “MQSPPGKPEIHKCRSPDKETFTCWWNPGTDGGLPTNYSLTYSKEGEKTTYECPDYKTSGPNSCFFSKQYTSIWKIYIITVNATNQMGSSSSDPLYVDVTYIVEPEPPRNLTLEVKQLKDKKTYLWVKWSPPTITDVKTGWFTMEYEIRLKPEEAEEWEIHFTGHQTQFKVFDLYPGQKYLVQTRCKPDHGYWSRWSQESSVEMPNDFTLKDRSRSHHHHHH”: “soluble”; “GPGSMLLERQQLVQALQLSYHCSAACATSTVNSYYPDEEKCRATVQGKMTAPFVLAVGMVPKQREYVDSLRDDLAVAFQHFPYLNGTAKPPDKEEQKGCAKAVASGERGRNGRASSPASIDWAGVRARLLSPKKVPLWYMHTELVFPGDTHDVRIYENAYQSLIVKEGFSYVIGCYASGDGVVPALDYVNARLCGESVQSLAQRIGFDDDVVEALEGLEAEVPTRVYTRVNAFGNNPATSRSSRQDKGHAQQVLKEAGLAYVRSYVTTRADEAVAKVEDGTLLLPVVVKPNSGAGSEFVTLCYTVDDIRVAFSMVEGVRTSQGTDAAQLVVEEYIEGPEYVVNTVSYQGVHVVTDVWESWKYPEPVVTTGLTRSAEEALRAAGIKRQKQRKISILYDRQTLITNLADLPATHSARRIVEYTLKCLDALGLENGCGHSEVRLDTRKAARELRRHEQRRPKTNSPLGKVKDEHLDEGEPILIELNSRMQGDIPRSTDVIGYDQYSLLVYISEAVNVFGAATAASTALPFRVDSSRPQRVGEIPWPPVPRLYRARPSTGLPLATTVLFLATEEECILNGVALRTLTELGTFQRFTRTIFKPNQPGFVTPLRHTVDLFSSPTSCVMQGPAAAVKADCAAIRSMESAALCSAAKAALFKLTSTIHETERLRENARIIDGRLHAMTEAYRRASAQAGSATDEVADDGREKDEQGTENDCCSSQHDLEALRRSISSLQSELTWVTNNLAADDRQVQLLRTEFAKALASQKPAPLYINYQDFSMMKAAGVGNELAVL”: “not soluble”; “MPIVNVKWQKEKYVVEVDTSAPPMVFKAQLFALTQVVPERQKVVIMGRTLGDDDWEGITIKENMTIMMMGSVGEIPKPPTVLEKKQANRDKQAEEISALYPCGLANLGNTCYFNSCVQMLKEVNELVLKPAEEMRIREHNDRLCHNLATLFNSLRDKDRALRSKGEPIKPFAAILTLSDSFPQFEKFKQQDANECLVSIMSNVTRIYGLSGWNIESLFRIQTETTMKCLESDEVSEKKVERNNQLTCYVNQDVRFLQTGIKAGFEEEMTRNSEELNRDAKWQKNTQISRLPKYLTVNINRFFYKESTKTNAKILKSVQFPMQLDTYDLCSQELKDKLVARRADIKLEEDAKLERELRKKVLDKEQGDKIFDDGVALPTAFEDDAGSNNSGFYDLKGIITHKGRSSQDGHYVAWMRSSEDGKWRLFDDEHVTVVDEEAILKTSGGGDWHSAYVLLYEARVIKQFPELPPAPVPTEVAADTAEPMEVSEKQ”: “not soluble”.
Next, “MRIQIGELIRSGVLELGDGYRTKRSELSQFGYAIVRAGDVVEIGVTASDSEFVDQRFDKAIGRKTVRLGDVVITTKGTVGRVAEVSKVPNAGLAVYSPQVCYLRSLQPSILHQRYLKYLLMSPATKYSISTFASSSDMAPYLSLSDFKSMVVDLPSLEDQRAIADVLGALDDKIAENQRVIQLSEQLAMTFYRSTEKSESSLTFADVAGIYGGGTPSTKNPDFWDGEIRWATPTDITALKGPWLCGTARSITEEGLSKSSGSLHPEGSILMTSRATVGHVAFIDAPTTTNQGFINLVPQEAYRYWLYFQLKQRTSEFIAWANGATFLELSRGTFKKLPFQACAETELEKFNSVVAPLMKRVLKAQKENQVLAATRDELLPLLMNGKITVAEAKEAAGDVGVVKQNQQEEGDSSV”: “not soluble”; “SEDDLTKVLNYTKQRQTEPNPEYYGVAKKKNIIKIHLESFQTFLINKKVNGKEVTPFLNKLSSGKEQFTYFPNFFHQTGQGKTSDSEFTMDNSLYGLPQGSAFSLKGDNTYQSLPAILDQKQGYKSDVMHGDYKTFWNRDQVYKHFGIDKFYDATYYDMSDKNVVNLGLKDKIFFKDSANYQAKMKSPFYSHLITLTNHYPFTLDEKDATIEKSNTGDATVDGYIQTARYLDEALEEYINDLKKKGLYDNSVIMIYGDHYGISENHNNAMEKLLGEKITPAKFTDLNRTGFWIKIPGKSGGINNEYAGQVDVMPTILHLAGIDTKNYLMFGTDLFSKGHNQVVPFRNGDFITKDYKYVNGKIYSNKNNELITTQPADFEKNKKQVEKDLEMSDNVLNGDLFRFYKNPDFKKVNPSKYKYETGPK”: “soluble”; “MLLKPEEYIERLGEYKRDIYVLGKKIEDFVNHPNIRPTVEAMAYTYSIAEKYAPHSELVGEKVNRLNYVNQTFEDLIARYDYQRELSLKLATCNYRCTGCDAINAIYPATKALDEREGTDYHRRFLELLKEIQKKDYACTAALTDVKGDRGKRPSEQKDKYLRVVEKREDGIVVRGAKICQSGAFAADVNFVLPTQTFRPGEEEFAVVFAAMPEDEGIKYILQNTGIQAKQREGGKFEAGNKYGDRTTCMVVFDDVFIPWERVFVFEDLKAARDVVSYFAPSHRCVGAACKAGFIDSMAGAASLMLKTSGLENVSALQQKVAEMVAVSEGAFAISVGAAVKGANHNGCWLPNFQMANSGKVIGVEGFAKALMNLIDISGGIIGTSPSEFDLEMVGDFLRASEKFTAEQRLKIVKFIEFWTTSSHLVGAFHGGGSPTAALITLRFLMDLSSREEAVKNCIDF”: “not soluble”.
On to “MSLHTAQKTRKGEHKWAAVVGLEIHAQISSNSKLFSGSQVRFSAPPNSLVSFFDASLPGTLPVLNRRCVEAAVMTGLALNCHINKKSLFDRKHYFYADLPAGYQITQQRLPIAVNGSLIYGVCAGKKQSQVIPKTVRIKQIQLEQDSGKSLHDNLRSQTLIDLNRAGVGLLEVVLEPDMSCGEEAATAVRELQLILQALGTSQANMAEGQLRVDANISVHHPGEPLGVRTEVKNLNSIRFLAKAIDYEIQRQINELENGGEILNETRSFHHKLGCTMSMRDKEGKQDYRFMPEPNLPPLVLYDATSLPAGADPQQVINIDQIRETLPELPSVTREKLVQQYGMLLEHSFTLLNEVGLLEFFQNVIKETRAEPKKVTSWVLNTFLGYLKQQNLAVSESPVTPSALAELLDLLDSRTISSSAAKQVFEELWKREGKTPGQIVSEKQLELMQDQGALEQLCHSVMEAHPQVVMDVKNRNPRAINKLIGLVRKATQSRADPVMIKEILEKKLSLEGHHHHHH”, for which the “soluble on expression in E. coli” value is listed as “soluble”.
Next, “MKSMSEYLNLLKEAIQNVVDGGWHETKRKGNTGIGKTFEDLLEKEEDNLDAPDFHDIEIKTHETAAKSLLTLFTKSPTNPRGANTMLRNRYGKKDEYGNNILHQTVSGNRKTNSNSYNYDFKIDIDWESQVVRLEVFDKQDIMIDNSVYWSFDSLQNQLDKKLKYIAVISAESKIENEKKYYKYNSANLFTDLTVQSLCRGIENGDIKVDIRIGAYHSGKKKGKTHDHGTAFRINMEKLLEYGEVKVIV”: “soluble”.
With “GSHMERPESELIRQSWRVVSRSPLEHGTVLFARLFALEPSLLPLFQYNGRQFSSPEDSLSSPEFLDHIRKVMLVIDAAVTNVEDLSSLEEYLTSLGRKHRAVGVRLSSFSTVGESLLYMLEKSLGPDFTPATRTAWSRLYGAVVQAMSRGWDGE”, the “soluble on expression in E. coli” value was “soluble”.
On to “MSLSKYAVSYVYKTFADIGSYAWAKKQIEVLASKGVINGTSDTTFTPQADITRADFMILLVKALGLTAEVTSNFDDVSEKDYYYEYVGIAKELGITTGVGNNKFNPKAKITRQDMMVLTTNALRIAGKISSTGTRADVERFSDKDQIASYAVEGVATLVKEGIVVGSGDIINPRGNASRAELAAIIYKIYYKEGHHHHHH”, for which the “soluble on expression in E. coli” value was “soluble”.
Turning to “MFAVRTKFVTKTEVVLRTVYTALEKGLAVIGPTQVAEELGVSKSTAQKMLNELSKAGYGVYVPKKGLVLNERGKMEARAAVRMHRLIECLLADLGVEDFCKEAEKIGMVAGSSLVDALEARYGDREFCPCGKRIPEVKK”, the “soluble on expression in E. coli” value is recorded as “not soluble”.
